Reference: patent US20220308056A1 (OMEROS, published 2022)

Molecular target: T1, MASP-2/C1-INH complex (fluid-phase, from human serum or plasma) (human, UniProt O00187 16-686; P05155 22-500)
T1 construct: also called C1-INH/MASP-2 complex
Assay: sandwich ELISA; mAb coated as capture, anti-C1-INH polyclonal detection, mannan-activated human serum
Experimental: The microtiter plate was blocked with 280 μl/well of 1% (w/v) BSA in TBS buffer for 1 hr at RT. (ii) Activated control serum was prepared by diluting pooled normal human serum (NHS) to 20% v/v in Tris-buffered saline (TBS; 10 mM Tris-C₁, 140 mM NaCl, pH 7.4) with 5 mM Ca²⁺. Mannan-agarose (100 uL, Sigma cat. M9917) was washed twice with five volumes of TBS/Ca²⁺, and resuspended to 100 μl in the same buffer. 500 μl of 20% serum was added to the 100 μl of mannan-agarose and incubated at room temperature (RT) with gentle shaking or rotation for 30 minutes. EDTA was then added to an end concentration of 10 mM and incubated for a further 2 minutes. The agarose was then spun down and the activated serum was aspirated off and stored at −20° C. (iii) Serial dilutions were prepared from the activated control serum over a range of 0.1% to 20% and the in TBS/Ca²⁺. The blocking buffer was discarded and 100 ul/well of samples or control sera was added to the plate and incubated for 1 hour at room temperature. […] (v) The plate was then washed 3× as described above. 100 μl/well anti-rabbit HRP (Sigma, 1:5000) was added and incubated for a further 45 min. (vi) The plate was then washed 3× as described above and 100 μl/well TMB substrate was added. When blue color developed, 50 μl/well 2N H₂SO₄ was added to stop the reaction and measured at the OD₄₅₀ nm.

T1 sequence (O00187 16-686, chain 1 of 2): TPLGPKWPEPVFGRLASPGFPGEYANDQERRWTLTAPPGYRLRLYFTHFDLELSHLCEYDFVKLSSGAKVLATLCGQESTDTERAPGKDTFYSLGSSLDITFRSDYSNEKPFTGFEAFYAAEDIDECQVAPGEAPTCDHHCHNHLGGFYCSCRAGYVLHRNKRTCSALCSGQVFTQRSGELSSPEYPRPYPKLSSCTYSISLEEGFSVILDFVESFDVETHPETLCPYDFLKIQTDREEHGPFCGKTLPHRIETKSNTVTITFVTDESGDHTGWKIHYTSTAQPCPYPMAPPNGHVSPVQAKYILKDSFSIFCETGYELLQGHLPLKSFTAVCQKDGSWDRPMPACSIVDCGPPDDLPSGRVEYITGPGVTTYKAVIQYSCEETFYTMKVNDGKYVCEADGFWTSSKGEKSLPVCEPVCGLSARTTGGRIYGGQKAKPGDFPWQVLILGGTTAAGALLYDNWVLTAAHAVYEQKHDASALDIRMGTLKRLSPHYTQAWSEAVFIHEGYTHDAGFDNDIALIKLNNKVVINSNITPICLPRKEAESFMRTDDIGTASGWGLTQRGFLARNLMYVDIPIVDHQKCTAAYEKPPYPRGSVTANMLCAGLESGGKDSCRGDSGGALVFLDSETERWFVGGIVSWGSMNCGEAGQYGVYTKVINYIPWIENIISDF
T1 sequence (P05155 22-500, chain 2 of 2): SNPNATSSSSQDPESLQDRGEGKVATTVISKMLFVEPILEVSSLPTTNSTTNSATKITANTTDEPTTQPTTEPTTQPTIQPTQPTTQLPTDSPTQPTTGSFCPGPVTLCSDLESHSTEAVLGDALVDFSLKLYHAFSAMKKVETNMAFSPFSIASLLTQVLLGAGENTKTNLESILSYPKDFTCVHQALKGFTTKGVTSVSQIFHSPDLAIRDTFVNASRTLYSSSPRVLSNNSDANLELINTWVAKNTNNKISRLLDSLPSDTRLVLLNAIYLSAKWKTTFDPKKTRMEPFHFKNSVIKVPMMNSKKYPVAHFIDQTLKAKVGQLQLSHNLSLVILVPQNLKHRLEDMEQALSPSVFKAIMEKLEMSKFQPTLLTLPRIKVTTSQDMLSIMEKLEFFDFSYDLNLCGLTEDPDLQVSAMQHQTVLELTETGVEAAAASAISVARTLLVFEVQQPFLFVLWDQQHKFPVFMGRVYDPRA

binding result: binds
B1: anti-MASP-2 mAb clone #C7 (antibody, V domains shown)
VH: EVKLVESGGGLVKPGGSLKLSCAASGFTFSSYLMSWVRQTPEKRLEWVATISGGGGNTYHPDSMKGRFTISRDNAKNTLYLQMSSLRSEDTALYYCARHGDFGNYFDYWGQGTTLTVSS
VL: DIVMSQSPSSLAVSAGEKVTMSCKSSQSLLNSGTQKNYLAWYQQKPGQSPKLLIYWASTRESGVPDRFTGSGSGTDFTLTISSVQAEDLAVYYCKQSYNLFTFGAGTKLELKR
notes: From hybridomas of immunized MASP-2 KO mice; also called mAb #C7; mAb #7
